According to patent publication US20100286367:

Molecular target: T1, purified human Lys77-Plasminogen, P00747
T1 chain: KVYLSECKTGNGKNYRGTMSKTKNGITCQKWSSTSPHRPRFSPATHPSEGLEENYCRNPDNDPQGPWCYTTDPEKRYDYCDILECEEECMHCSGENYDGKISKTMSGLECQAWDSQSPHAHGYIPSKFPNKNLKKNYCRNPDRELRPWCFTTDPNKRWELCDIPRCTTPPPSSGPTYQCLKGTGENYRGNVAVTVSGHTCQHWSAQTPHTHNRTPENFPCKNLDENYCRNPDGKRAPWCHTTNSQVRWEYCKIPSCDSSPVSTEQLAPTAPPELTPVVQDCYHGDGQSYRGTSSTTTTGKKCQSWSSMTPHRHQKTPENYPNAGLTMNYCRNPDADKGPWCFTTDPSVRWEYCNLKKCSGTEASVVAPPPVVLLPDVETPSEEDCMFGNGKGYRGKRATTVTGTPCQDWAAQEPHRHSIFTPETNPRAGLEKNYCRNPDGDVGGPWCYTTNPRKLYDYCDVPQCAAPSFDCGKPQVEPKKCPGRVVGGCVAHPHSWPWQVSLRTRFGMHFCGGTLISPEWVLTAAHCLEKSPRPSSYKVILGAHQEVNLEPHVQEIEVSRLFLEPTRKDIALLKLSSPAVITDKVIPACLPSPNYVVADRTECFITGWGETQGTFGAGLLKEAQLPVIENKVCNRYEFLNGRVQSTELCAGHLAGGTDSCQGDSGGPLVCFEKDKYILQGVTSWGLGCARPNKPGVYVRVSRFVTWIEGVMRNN

B1: thiolated streptokinase (protein)
chain: IAGPEWLLDRPSVNNSQLVVSVAGTVEGTNQDISLKFFEIDLTSRPAHGGKTEQGLSPKSKPFATDSGAMSHKLEKADLLKAIQEQLIANVHSNDDYFEVIDFASDATITDRNGKVYFADKDGSVTLPTQPVQEFLLSGHVRVRPYKEKPIQNQAKSVDVEYTVQFTPLNPDDDFRPGLKDTKLLKTLAIGDTITSQELLAQAQSILNKNHPGYTIYERDSSIVTHDNDIFRTILPMDQEFTYRVKNREQAYRINKKSGLNEEINNTDLISEKYYVLKKGEKPYDPFDRSHLKLFTIKYVDVDTNELLKSEQLLTASERNLDFRDLYDPRDKAKLLYNNLDAFGIMDYTLTGKVEDNHDDTNRIITVYMGKRPEGENASYHLAYDKDRYTEEEREVYSYLRYTGTPIPDNPNDK
plasmin generated in the plasminogen activation assay (S-2251 amidolysis, SU/ml): thiolated SK (1 nM) generated plasmin at a nearly linear of 4225 SU/mL
